How the values were obtained:
Experiment in all cases: pull-down
[1] = molecular target: T1, GST-Sla1(1–420aa, W108S) (S. cerevisiae, UniProt P32790 1-420, W108S)
T1 sequence (looked up): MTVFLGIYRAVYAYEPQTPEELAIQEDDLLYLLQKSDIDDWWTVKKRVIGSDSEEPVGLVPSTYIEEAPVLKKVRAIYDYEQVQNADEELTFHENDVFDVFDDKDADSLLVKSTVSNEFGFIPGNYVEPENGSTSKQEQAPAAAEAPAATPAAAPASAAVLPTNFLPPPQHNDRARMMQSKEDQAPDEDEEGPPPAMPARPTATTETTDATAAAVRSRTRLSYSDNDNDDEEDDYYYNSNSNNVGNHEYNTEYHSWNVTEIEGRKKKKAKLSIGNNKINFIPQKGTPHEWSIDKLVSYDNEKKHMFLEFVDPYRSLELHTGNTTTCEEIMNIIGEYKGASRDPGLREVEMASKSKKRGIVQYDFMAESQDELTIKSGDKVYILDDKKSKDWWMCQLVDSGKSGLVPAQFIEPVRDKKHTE

[2] = molecular target: T2, GST-Lsb3 (S. cerevisiae, UniProt P43603 1-459)
T2 sequence (looked up): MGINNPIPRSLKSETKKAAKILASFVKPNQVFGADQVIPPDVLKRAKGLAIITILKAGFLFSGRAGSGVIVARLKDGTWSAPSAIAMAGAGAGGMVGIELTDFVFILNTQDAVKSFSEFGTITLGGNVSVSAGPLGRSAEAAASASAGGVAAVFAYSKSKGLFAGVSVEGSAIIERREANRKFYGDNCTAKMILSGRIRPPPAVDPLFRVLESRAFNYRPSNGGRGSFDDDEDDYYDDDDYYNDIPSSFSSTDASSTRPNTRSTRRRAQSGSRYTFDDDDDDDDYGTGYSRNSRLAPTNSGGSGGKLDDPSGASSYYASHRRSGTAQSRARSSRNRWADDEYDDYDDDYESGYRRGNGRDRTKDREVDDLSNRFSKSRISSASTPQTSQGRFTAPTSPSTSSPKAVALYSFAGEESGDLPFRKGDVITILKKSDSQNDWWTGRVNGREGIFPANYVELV

[3] = molecular target: T3, GST-Sla1(1–420aa, W41S) (S. cerevisiae, UniProt P32790 1-420, W41S)
T3 sequence (looked up): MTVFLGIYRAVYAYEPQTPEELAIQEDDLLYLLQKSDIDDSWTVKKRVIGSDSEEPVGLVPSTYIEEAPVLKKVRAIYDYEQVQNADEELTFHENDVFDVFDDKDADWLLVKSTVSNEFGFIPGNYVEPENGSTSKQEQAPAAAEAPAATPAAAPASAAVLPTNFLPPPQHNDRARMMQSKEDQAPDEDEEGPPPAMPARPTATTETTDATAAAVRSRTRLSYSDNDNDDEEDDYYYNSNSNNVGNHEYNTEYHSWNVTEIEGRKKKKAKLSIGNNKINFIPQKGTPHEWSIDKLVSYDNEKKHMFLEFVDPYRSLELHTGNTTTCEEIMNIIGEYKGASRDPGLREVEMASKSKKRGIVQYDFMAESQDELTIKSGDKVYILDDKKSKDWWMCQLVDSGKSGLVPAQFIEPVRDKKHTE

[4] = molecular target: T4, GST-Ysc84 (S. cerevisiae, UniProt P32793 1-468)
T4 sequence (looked up): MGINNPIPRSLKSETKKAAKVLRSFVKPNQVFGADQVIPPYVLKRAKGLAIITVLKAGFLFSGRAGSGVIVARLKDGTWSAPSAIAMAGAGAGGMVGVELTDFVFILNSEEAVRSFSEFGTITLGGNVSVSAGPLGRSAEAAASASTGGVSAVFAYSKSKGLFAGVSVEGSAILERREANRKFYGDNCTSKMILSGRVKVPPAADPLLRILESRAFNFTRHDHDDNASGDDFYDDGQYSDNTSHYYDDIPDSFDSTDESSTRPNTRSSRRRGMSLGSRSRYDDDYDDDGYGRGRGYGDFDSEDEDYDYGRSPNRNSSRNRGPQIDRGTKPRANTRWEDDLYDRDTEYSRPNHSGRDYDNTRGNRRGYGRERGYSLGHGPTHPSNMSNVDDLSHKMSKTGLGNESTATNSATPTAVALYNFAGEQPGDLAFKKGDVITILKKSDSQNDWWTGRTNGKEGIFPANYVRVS

[5] = molecular target: T5, GST-Sla1(1–420aa) (S. cerevisiae, UniProt P32790 1-420)
T5 sequence (looked up): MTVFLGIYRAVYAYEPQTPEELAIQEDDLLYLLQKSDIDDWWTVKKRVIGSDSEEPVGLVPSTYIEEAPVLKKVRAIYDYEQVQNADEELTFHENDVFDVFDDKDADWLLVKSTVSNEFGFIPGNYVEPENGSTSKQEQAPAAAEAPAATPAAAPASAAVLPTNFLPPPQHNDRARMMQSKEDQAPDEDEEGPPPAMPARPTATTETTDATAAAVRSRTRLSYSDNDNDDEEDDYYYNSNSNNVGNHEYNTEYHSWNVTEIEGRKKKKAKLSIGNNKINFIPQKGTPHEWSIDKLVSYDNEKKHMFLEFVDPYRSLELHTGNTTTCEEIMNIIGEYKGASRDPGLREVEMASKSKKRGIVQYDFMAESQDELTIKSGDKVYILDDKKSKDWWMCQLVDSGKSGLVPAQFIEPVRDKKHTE

Measured: binding result

B1: MBP-Ecm25-C-term (361–599aa) (domain or fragment, S. cerevisiae, UniProt P32525 361-599, looked up)
chain: EISSPPSSVSSSSTIPVLPKPRKSSPTRYSELGCLTLPRSRSPSPQRSVTSPTYTPVALQNTPVLKPKSSSRNVSSPSFNAKPPLPIKAVTRPQLSLTSNSNTDLALASSSTDTLSSPTKTPSADSLPLSNSSTDLTISDNIKEMVKDEPAKDKNSVETDIFVQQFESLTLVQNAKIKKFDKELQEKKKKNETTSKTADKFSQKGYSDIKASNKVSRLAALYEERLQGLQVMNEMKQRW
binds: [1] | [2] | [3] | [4] | [5]

B2: MBP-Ecm25(361–535aa) (domain or fragment, S. cerevisiae, UniProt P32525 361-535, looked up)
chain: EISSPPSSVSSSSTIPVLPKPRKSSPTRYSELGCLTLPRSRSPSPQRSVTSPTYTPVALQNTPVLKPKSSSRNVSSPSFNAKPPLPIKAVTRPQLSLTSNSNTDLALASSSTDTLSSPTKTPSADSLPLSNSSTDLTISDNIKEMVKDEPAKDKNSVETDIFVQQFESLTLVQNA
binds: [1] | [2] | [3] | [4] | [5]

Reference: publication PMC8202958 (Cell reports, 2021)
